# Assay results published in patent US12441811B2, “Compositions and methods for treating serpin B13 disorders” (REGENTS OF THE UNIVERSITY OF MINNESOTA, priority 2019, dated 2025).
# Legend:
# [1] = system: pancreatic islets and β-cells; assay: Follow-up of healthy offspring with gestational exposure to anti-serpinB13 mAb; assay type: in vivo, mouse; conditions: for β-cell mass per animal (islet mass): offspring
# Protocol: The control mouse mAb (clone TIB92) was from ATCC (Manassas, VA, USA). The recombinant human control Ab (cat. No 403502) was from BioLegend (San Diego, CA). In most of the experiments, anti-serpinB13 mAb (clone B29) or control mouse mAb was injected i.p. into pregnant female mice at 50 μg for four consecutive days, starting at gestational day E10.5 (total dose of 200 μg). In the lineage tracing experiments in adult mice, B29 was injected i.p. for 7 days at 100 μg/injection during the first week after STZ treatment (total dose of 700 μg).
# Preparation of the islets and single islet-cell suspensions. The adult pancreases were subjected to digestion with collagenase P and passed through the 100-μm strainers to separate the islets from debris. The blindly digested pancreatic samples were manually counted for the number of pancreatic islets under a dissecting microscope with a warm halogen light from below. The islets were defined as any visible, distinct cluster of cells with smooth edges and light- to dark-brown glowing color and diameter greater than 100 μm. The hand-picked islets were then dispersed with CellStripper (cat. no. 25-056-CI; Corning, Corning, NY). The cells were fixed and permeabilized, using the Foxp3/Transcription Factor Staining Buffer Set to permit intracellular staining.
# Calculation of the islet mass. In embryos, the β-cell mass was expressed as the percentage of the area of all pancreatic sections combined, that positively stained with anti-insulin antibody. To calculate β-cell mass in adult mice, the percentage insulin-positive area was multiplied by the pancreas weight expressed in milligrams.
# Estimating the number of islets and islet cells. The islets were manually counted under a dissecting microscope. To estimate the number of α and β cells, the islet cells were dispersed, intracellularly stained with antibodies to […], respectively, and their counts measured by FACS.
# [2] = system: Ngn3+ endocrine progenitor cells; assay: Ngn3+ cells in embryonic pancreas explants (E12.5) cultured in vitro; assay type: cell-based, mouse; conditions: for number of CK19+ epithelial cells: E12.5 explants with mAb vs control Ab
# Protocol: Isolation and culture of embryonic pancreas explants. The isolation and culture of embryonic pancreas explants was performed as described elsewhere, with minor modifications.
# Processing of pancreatic tissue for immunofluorescence microscopy. The pancreatic tissues were isolated and fixed either overnight (adult pancreases), or for one hour (embryonic pancreas explants), in 2% PFA (pH 7.4), followed by a two-step saturation process: first in a 30% sucrose solution in PBS and then in optimal cutting temperature (OCT) compound. After complete saturation, the tissues were imbedded in OCT using Cryomold and then snap frozen in an ethanol/dry ice bath. The OCT blocks were serially cut through the entire organ to obtain representative sections every 600 μm (6 to 8 sections per adult pancreas), 50 μm (12 to 14 sections per E16.5 embryonic pancreas), 35 μm (10 to 12 sections per E14.5 embryonic pancreas), or 15 μm (10 to 12 sections per E12.5 embryonic pancreas cultured for 1 to 3 days). For the embryonic linage tracing experiments, three largest sections were taken for the analysis. For all other experiments involving immunofluorescence microscopy, all obtained sections were analyzed. […]
# The sections from the pancreases of embryos at age E14.5 and E16.5, and newborn pups (OP), were stained with anti-Ngn3 antibody to determine the total number of endocrine progenitors cells for all sections per explant combined (FIG. 9G, FIG. 17A). Alternatively, the sections representing the pancreases of embryos at age E12.5 (which are considerably smaller) were stained with both anti-Ngn3 and anti-CK19 antibodies to determine the fraction of CK19-positive area that was occupied by Ngn3− positive staining (FIGS. 9D, 10A, 10C, 12D, 12G, 12J and FIGS. 15A, 20B). The following formula was used to adjust for any differences in the pancreas size: (Ngn3^+ cell number/μm^2 of CK19^+ cells)×10^5.
# Image analysis. Embryonic images were processed with a plugin-Trainable Weka Segmentation v3.2.28 (Hamilton, New Zealand) for ImageJ v.1.52jv software. To classify and quantify the images in unbiased fashion, we defined the following four classes for the analysis: Ngn3^+ cells, the clusters of cytokeratin 19^+ cells, the negatively stained areas, and background (e.g., the area outside of tissue sample). Alternatively, the Visiopharm version 6.0 software (Visiopharm, Hoerholm, Denmark) with Author module was used to create applications to outline Ngn3^+ cells or double positive cells expressing YFP and insulin using preprocessing and postprocessing steps, when necessary. In addition, the Engine module of the Visiophram module was used to execute created applications and unbiasedly analyze the images. For the unbiased quantitative analysis of β-cells and islets in the whole pancreatic sections, Visiopharm Author module was trained to recognize insulin-positive β-cell clusters with diameter greater than 50 μm as well as negatively stained section area. In all studies involving microscopy the treatment assignments were blinded to investigators who performed data analysis.
# [3] = 8-week old offspring, prenatal exposure
molecule,measurement,setting,value
"B29: mouse monoclonal antibody to serpin B13, clone B29; heavy chain SEQ ID NO:14, kappa light chain SEQ ID NO:16 (antibody, V domains shown) VH: QIQLVQSGPELKKPGETVKISCKASGYTFTTYGMSWVKQAPGKGLKWMGWINTYSGMPTYADDFKGRFAFSLETSATTAYLQINNLKNEDTATYFCARPLLGLDYWGQGTTLTVSS VL: DIVMTQTPLSLSVTIGQPASISCKSSQSLLHSDGKTFLNWFLQRPGQSPKLLIYLVSKLESGIPDRFSGSGSGTDFTLKISRVEVEDLGVYYCLQHTHFPLTFGAGTKLEIK",number of pancreatic islets,[1]; [3],significant increase
same,total β-cell number,[1]; [3],significant increase
same,α-cell population,[1]; [3],significantly increased
same,total pancreas and body weight,"[1]; at birth and in adulthood, vs control group",remained the same
same,β-cell mass per animal (islet mass),"[1]; prenatal exposure, listed as anti-serpinB13 antibody",increased
same,β-cell mass per animal (islet mass),"[1]; prenatal exposure, listed as anti-serpinB13 mAb",significant increase
same,β-cell mass per animal (islet mass),"[1]; prenatal exposure, listed as mAb",significant expansion
same,"Ngn3+ cell population, upregulation by mAb","[2]; CatL-deficient embryonic pancreas explants, 48-hour culture",completely refractory to upregulation
same,number of CK19+ epithelial cells,[2],remained unchanged
same,number of CK19+ epithelial cells,[2]; listed as mAb,did not change
same,number of Ngn3+ cells,"[2]; E12.5 explants, antibody at 1 μg/mL vs control Ab",significant increase
